The values that follow come from publication PMC4728125, “Molecular basis for allosteric specificity regulation in class Ia ribonucleotide reductase from Escherichia coli” (eLife, 2016).

In general, Kd refers to the free concentration of one partner at which half of the binding sites on the other are occupied at equilibrium, for simple one-to-one binding.

In data set [1] the target is ribonucleotide reductase β2 (Escherichia coli) (UniProt P69924). Conditions: cited from earlier work.
Data set [2] concerns the molecule itself. The experiment in a line: crystal structure; α4β4 crystal form; 25 μM α2 and 50 μM met-β2 in 50 mM HEPES, 15 mM MgCl2, 1 mM EDTA, pH 7.6, with 10 mM dATP and 5 mM DTT; hanging drop, ~25°C; crystals soaked with CDP/dATP, UDP/dATP, ADP/dGTP or GDP/TTP; four structures at 2.97-3.40 Å.

Chain of ribonucleotide reductase β2 (Escherichia coli) (P69924 2-376): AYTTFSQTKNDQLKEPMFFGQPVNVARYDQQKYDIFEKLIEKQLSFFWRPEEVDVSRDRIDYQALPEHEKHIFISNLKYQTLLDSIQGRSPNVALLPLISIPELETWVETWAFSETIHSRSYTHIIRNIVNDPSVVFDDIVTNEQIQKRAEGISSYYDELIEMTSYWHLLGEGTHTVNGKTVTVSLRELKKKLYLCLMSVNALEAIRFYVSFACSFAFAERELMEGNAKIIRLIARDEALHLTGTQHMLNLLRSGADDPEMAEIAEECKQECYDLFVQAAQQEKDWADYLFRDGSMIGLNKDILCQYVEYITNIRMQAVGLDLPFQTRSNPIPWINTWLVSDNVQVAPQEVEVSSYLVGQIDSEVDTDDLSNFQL

As to “ribonucleotide reductase α2 (from UniProt P00452)”, the equilibrium dissociation constant (Kd) in data set [1] is 400 nM.

B1: Escherichia coli class Ia ribonucleotide reductase catalytic subunit α2 (enzyme, E. coli, UniProt P00452 1-761, looked up)
chain: MNQNLLVTKRDGSTERINLDKIHRVLDWAAEGLHNVSISQVELRSHIQFYDGIKTSDIHETIIKAAADLISRDAPDYQYLAARLAIFHLRKKAYGQFEPPALYDHVVKMVEMGKYDNHLLEDYTEEEFKQMDTFIDHDRDMTFSYAAVKQLEGKYLVQNRVTGEIYESAQFLYILVAACLFSNYPRETRLQYVKRFYDAVSTFKISLPTPIMSGVRTPTRQFSSCVLIECGDSLDSINATSSAIVKYVSQRAGIGINAGRIRALGSPIRGGEAFHTGCIPFYKHFQTAVKSCSQGGVRGGAATLFYPMWHLEVESLLVLKNNRGVEGNRVRHMDYGVQINKLMYTRLLKGEDITLFSPSDVPGLYDAFFADQEEFERLYTKYEKDDSIRKQRVKAVELFSLMMQERASTGRIYIQNVDHCNTHSPFDPAIAPVRQSNLCLEIALPTKPLNDVNDENGEIALCTLSAFNLGAINNLDELEELAILAVRALDALLDYQDYPIPAAKRGAMGRRTLGIGVINFAYYLAKHGKRYSDGSANNLTHKTFEAIQYYLLKASNELAKEQGACPWFNETTYAKGILPIDTYKKDLDTIANEPLHYDWEALRESIKTHGLRNSTLSALMPSETSSQISNATNGIEPPRGYVSIKASKDGILRQVVPDYEHLHDAYELLWEMPGNDGYLQLVGIMQKFIDQSISANTNYDPSRFPSGKVPMQQLLKDLLTAYKFGVKTLYYQNTRDGAEDAQDDLVPSIQDDGCESGACKI
notes: Ribonucleotide reductase class Ia α subunit (NrdA, protein R1), E. coli; residues about 4-737 modelled; 172-kDa homodimer; no tag is named for this preparation; The His6-tagged α2 was used only in the activity assays; also called α subunit; RNR α; source: prepared as described (Salowe et al., 1987; Salowe and Stubbe, 1986), purified
For the molecule B1, the binding result in data set [2] was “binds”.
